Test results: US10400230B2, “Protease variants and polynucleotides encoding same” (NOVOZYMES A/S, priority 2014, dated 2019)
Where a chain is given by its changes, count along the chain named. Numbers in names are those of the source.

B1: K146A, S173P, S175P, F180Y: TY145 protease (SEQ ID NO 3) variant with these substitutions (protein, listed as Bacillus sp.)
chain: AVPSTQTPWGIKSIYNDQSITKTTGGSGIKVAVLDTGVYTSHLDLAGSAEQCKDFTQSNPLVDGSCTDRQGHGTHVAGTVLAHGGSNGQGVYGVAPQAKLWAYKVLGDNGSGYSDDIAAAIRHVADEASRTGSKVVINMSLGSSAADSLIASAVDYAYGKGVLIVAAAGNSGPGPNTIGYPGGLVNAVAVAALENVQQNGTYRVADFSSRGNPATAGDYIIQERDIEVSAPGASVESTWYTGGYNTISGTSMATPHVAGLAAKIWSANTSLSHSQLRTELQNRAKVYDIKGGIGAGTGDDYASGFGYPRVK
B2: I150N, S173P, S175P, F180Y: TY145 protease (SEQ ID NO 3) variant with these substitutions (protein, listed as Bacillus sp.)
chain: B1 chain with A146K, I150N
B3: K146T, S173P, S175P, F180Y: TY145 protease (SEQ ID NO 3) variant with these substitutions (protein, listed as Bacillus sp.)
chain: B1 chain with A146T
B4: I150A, S173P, S175P, F180Y: TY145 protease (SEQ ID NO 3) variant with these substitutions (protein, listed as Bacillus sp.)
chain: B1 chain with A146K, I150A
B5: S114Q, S173P, S175P, F180Y: TY145 protease (SEQ ID NO 3) variant with these substitutions (protein, listed as Bacillus sp.)
chain: B1 chain with S114Q, A146K

assay: Determination of binding constants of inhibitor in Tris buffer at pH 8; assay type: biochemical; details: Ki of variant with the mutation relative to variant without the mutation
Protocol: (§1) Purified protease variants are pre-diluted to approximately 0.2 mg/ml in dilution buffer. 40 μl diluted protease is then mixed with 40 μl inhibitor solution (Z-Gly-Ala-NHCH(CH2C6H4pOH)C(OH)(SO3Na)—H, wherein Z is benzyloxycarbonyl) or 40 μl 4-FPBA solution in the well of a 96 well microtiter plate (Nunc F 96-MTP). […] After 10 min mixing of protease and inhibitor at room temperature, 30 μl of the mixture is transferred to a microtiter plate (Nunc U96 PP 0.5 ml) with 270 μl Model B detergent in the wells resulting in inhibitor concentrations of 0-30 μM and 4-FPBA concentrations of 0-6000 μM. Protease, inhibitor and detergent is mixed for 1 hour using magnetic bars for 1 hour at room temperature to reach equilibrium. Then 20 μl is transferred to a microtiter plate (Nunc F 96-MTP). 100 μl substrate solution is added and after 5 sec mixing absorbance at 405 nm is measured every 20 sec for 5 min on a SpectraMax Plus reader. Slope from linear regression of initial increase in absorbance at 405 nm is used for calculation of apparent binding constants.
(§2) It is assumed that protease and inhibitor react according to the equation: E+I ? EI
(§3) Where E is the protease, I is the inhibitor and EI is the protease-inhibitor complex. […] The concentration of enzyme-inhibitor in the detergent solution is then given by:
(§4) where Etot is the total protease concentration ([Etot]=[E]+[EI]), Itot is the total inhibitor concentration ([Itot]=[I]+[EI]), and Ki is the equilibrium binding constant for the reaction. The measured slopes V are given by:
(§5) where V0 is the slope without inhibitor added. To calculate apparent binding constant Ki least square fitting of measured slopes at various inhibitor concentrations to this equation is performed with Ki and V0 as variables.
(§6) Having the Ki for each variant, it is possible to calculate the effect of a single mutation, if data are available for at least two variants that differ only by that mutation. In this case, the relative Ki for the mutation is calculated:
(§7) [formula] A lower Ki is desirable, as a satisfactory inhibition can be obtained at a lower inhibitor concentration, so beneficial mutations have a relative Ki<1.0 The following table show such relative Kimutation. Each row show: • a mutation (column 1: “Mutation”) • a protease variant (relative to SEQ ID NO: 2) that comprise the mutation from column 1 (column 2: “Variant with the mutation”) • another protease variant (relative to SEQ ID NO: 2), that differs from the one in column 2 only by not having the mutation in column 1 (column 3: “Variant without the mutation”) • Relative Kimutation for the mutation in column 1, in the context of the variant in column 3, measured in Model B detergent (column 4: “inhibitor binding in Model B”) • Relative Kimutation for the mutation in column 1, in the context of the variant in column 3, measured in Tris buffer at pH 8 (column 5: “inhibitor binding in Tris buffer pH 8”)

| Molecule | Inhibitor-binding relative Kimutation, inhibitor binding in Tris buffer pH 8 |
| --- | --- |
| B1 | 0.29 |
| B2 | 0.21 |
| B3 | 0.06 |
| B4 | 0.40 |
| B5 | 0.34 |

assay: Determination of binding constants of inhibitor (NNIC) in Model B detergent, Suc-AAPF-pNA read-out; assay type: biochemical; details: Ki of variant with the mutation relative to variant without the mutation, <1.0 beneficial
Protocol: as §1, §2, §3, §4, §5
The Ki for the parent protease and for each variant was calculated as described above
as §6, §7
Ki were calculated as shown in Example 3. The Improvement Factor (IF) or Relative

| Molecule | Inhibitor-binding relative Kimutation, inhibitor binding in Model B |
| --- | --- |
| B1 | 0.34 |
| B2 | 0.35 |
| B3 | 0.08 |
| B4 | 0.50 |
| B5 | 0.63 |
